Data reported in patent US10975123B2, “Mutant Akt-specific capture agents, compositions, and methods of using and making” (California Institute of Technology, priority 2014, dated 2021).
Primed or numbered codes have the meaning given here. Where no end group is shown, it is not given here. [ ]: non-standard residue; d: D form. PEG5′ = PEG5 linker

How the values were obtained:
full length Akt1E17K = full length Akt1E17K (Homo sapiens, UniProt P31749, E17K); assay: Fluorescence polarization binding to full-length E17K Akt1; settings: triligand 9, triplicate, in words
Sequence of full length Akt1E17K (P31749 whole entry E17K): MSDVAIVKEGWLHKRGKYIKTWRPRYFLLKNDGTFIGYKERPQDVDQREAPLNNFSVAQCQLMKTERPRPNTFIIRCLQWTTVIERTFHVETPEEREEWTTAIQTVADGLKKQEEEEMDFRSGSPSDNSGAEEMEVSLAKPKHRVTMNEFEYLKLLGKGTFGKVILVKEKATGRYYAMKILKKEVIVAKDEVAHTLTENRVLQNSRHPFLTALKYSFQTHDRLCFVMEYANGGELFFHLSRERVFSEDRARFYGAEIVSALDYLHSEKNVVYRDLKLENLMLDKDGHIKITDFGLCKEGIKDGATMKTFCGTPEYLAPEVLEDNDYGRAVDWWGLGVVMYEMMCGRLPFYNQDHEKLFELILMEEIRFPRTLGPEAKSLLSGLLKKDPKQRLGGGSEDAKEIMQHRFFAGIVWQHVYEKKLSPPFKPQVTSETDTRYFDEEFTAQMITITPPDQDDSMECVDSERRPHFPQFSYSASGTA
Method: FIG. 2: Anchor ligand structure and characterization. (FIG. 2A) The peptide anchor ligand, yleaf (SEQ ID NO: 43), which was discovered using the epitope-targeting technique. The different sets of R groups indicate the modifications that were made to perform the various experiments described. (FIG. 2B) Point ELISA for specificity obtained by immobilizing biotinylated yleaf (SEQ ID NO: 43) anchor ligand 2 onto a Neutravidin plate, then incubating with a 6 His-tagged epitope (“6 His” disclosed as SEQ ID NO: 4) 3. […] (FIG. 2C) Binding curves of yleaf (SEQ ID NO: 43) anchor ligand 4 to the full-length WT or E17K mutant Akt1 proteins obtained in solution by fluorescence polarization. A saturation point for the WT ligand was not reached due to the prohibitively high protein concentration required. (FIG. 2D) Full binding curves of yleaf (SEQ ID NO: 43) anchor ligand 4 to the WT or E17K mutant epitopes. […] All assays were performed in triplicate and averaged. Error bars indicate standard deviation.
FIG. 5: The PCC agent triligand development strategy, structure, and inhibition data. (FIG. 5A) The yleaf (SEQ ID NO: 43) anchor ligand with a C-terminal alkyne 2 was screened against an azide-terminated library in the presence of the full-length PH Domain to identify a biligand. The biligand 7 was then appended with an N-terminal azide and screened against an alkyne library to identify a triligand. […]

[1] = target: T1, HEK-293T cells expressing GFP-tagged E17K PH Domain (Homo sapiens, UniProt P31749, E17K); assay: Cell imaging, cells expressing E17K protein; assay type: cell-based; settings: confocal imaging, 50 nM, compared with WT cells, in words
T1 construct: transfected to express GFP-tagged E17K or GFP-tagged WT PH Domain proteins; expressed in transfected cells; host or cells: HEK-293T
T1 sequence (P31749 5-108 E17K limits assumed): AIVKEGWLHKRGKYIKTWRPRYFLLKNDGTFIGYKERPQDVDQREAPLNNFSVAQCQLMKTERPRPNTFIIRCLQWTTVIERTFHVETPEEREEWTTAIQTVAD
Text: The yleaf ligand was then labeled with both a Tat cell-penetrating peptide^22 and a Cy5 dye (FIG. 2a). The combination of the GFP label on the protein and the Cy5 label on the dye permitted the use of multi-color fluorescence microscopy for interrogating any spatial registry between the two fluorescent labels, as well as tracking the efficiency of the protein expression in the cells. Live HEK-293T cells expressing these GFP-tagged proteins were exposed to varying concentrations of the modified yleaf anchor ligand 6 for one hour. The cells were then incubated in fresh media for one hour before being thoroughly washed in PBS to remove weakly and nonspecifically bound PCC and fixed for fluorescence microscopy measurements.
However, the level of the PCC agent retained by the cells was substantially different (FIG. 4). […] Pearson's correlation coefficient was used to quantify the co-localization of the two different dyes^23 by calculating over four representative images for each of the WT or E17K mutant cells and averaging the results. […] The Cy5 fluorescence intensity on a per cell basis has also been calculated for the cells expressing the WT and E17K proteins, and this difference is again statistically significant (p=0.00018). […]

Substance | selectivity for E17K over WT full-length protein by fluorescence polarization (full length Akt1E17K) | retention of Cy5-labeled ligand in cells expressing E17K PH Domain (Cy5 signal) [1]
triligand 9: form of the ivdae-yleaf-yksy triligand used in fluorescence polarization assays (peptide 1 [dI][dV][dD][dA][dE]; peptide 2 [dY][dL][dE][dA][dF]; peptide 3 [dY][dK][dS][dY]; also: three chains joined by triazole click linkages (Lys(N3) and Pra handles), places not settled) | E17K mutant selectivity is retained | 
PEG5-TAT-Cy5: control construct with no anchor ligand peptide, used in cell imaging ([PEG5′]YGRKKRRQRR; not fully specified (C-terminus); numbers in words are those of the source; also: Cy5 dye attached, site not given here) |  | looks the same as the WT PH Domain images
